Measurements: patent US20080261903

Tests used:
MKK6, P52564 = molecular target: T1, MKK6, P52564
T1 chain: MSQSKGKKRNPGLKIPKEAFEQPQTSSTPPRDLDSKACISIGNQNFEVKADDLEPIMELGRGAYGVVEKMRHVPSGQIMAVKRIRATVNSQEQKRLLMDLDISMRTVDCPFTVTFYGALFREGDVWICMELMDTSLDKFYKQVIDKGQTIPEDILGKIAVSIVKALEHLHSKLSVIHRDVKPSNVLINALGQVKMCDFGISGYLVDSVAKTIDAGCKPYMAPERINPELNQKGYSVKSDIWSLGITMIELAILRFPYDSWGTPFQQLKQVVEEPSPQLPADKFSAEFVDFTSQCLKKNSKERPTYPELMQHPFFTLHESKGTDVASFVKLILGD

MEK2, P36507 = molecular target: T2, MEK2, P36507
T2 chain: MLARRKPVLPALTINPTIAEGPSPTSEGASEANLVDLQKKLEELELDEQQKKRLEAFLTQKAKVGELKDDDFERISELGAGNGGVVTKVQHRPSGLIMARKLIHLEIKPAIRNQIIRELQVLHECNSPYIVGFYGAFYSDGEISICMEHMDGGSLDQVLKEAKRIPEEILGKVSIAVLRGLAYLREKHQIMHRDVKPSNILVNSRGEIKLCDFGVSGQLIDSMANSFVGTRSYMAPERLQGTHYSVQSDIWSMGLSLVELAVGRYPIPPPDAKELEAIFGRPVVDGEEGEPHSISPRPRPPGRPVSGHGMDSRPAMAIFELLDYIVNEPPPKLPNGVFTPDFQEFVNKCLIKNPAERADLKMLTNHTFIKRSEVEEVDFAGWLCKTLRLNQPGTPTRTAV

MKK4, P45985 = molecular target: T3, MKK4, P45985
T3 chain: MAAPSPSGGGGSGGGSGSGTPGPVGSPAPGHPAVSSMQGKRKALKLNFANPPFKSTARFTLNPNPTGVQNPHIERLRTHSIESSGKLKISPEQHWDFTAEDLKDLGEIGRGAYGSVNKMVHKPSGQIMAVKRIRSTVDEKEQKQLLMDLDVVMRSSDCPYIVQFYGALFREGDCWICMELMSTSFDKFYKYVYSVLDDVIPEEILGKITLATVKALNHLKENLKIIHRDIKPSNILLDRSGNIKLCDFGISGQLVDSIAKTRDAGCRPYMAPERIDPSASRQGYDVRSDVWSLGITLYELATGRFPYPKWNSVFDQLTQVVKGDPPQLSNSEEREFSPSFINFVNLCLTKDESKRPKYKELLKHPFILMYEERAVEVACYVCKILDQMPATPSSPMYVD

B1: FLAG-tagged RC Kinase polypeptide (human RC Kinase variant 1, SEQ ID NO: 7, with a FLAG epitope at its amino terminal) (protein)
chain: SKKQQLLDILMSSMPKPERHAESLLDICHDTNSSPTDLMTVTKNQNIILQSISRSEEFDQDGDCSHSTLVNEEEDPSGGRQDWQPRTEEFSTSHMKYSGRSIKFLLPPLSLLPTRSGVLTIPQNHKFPKEKERNIPSLTSFVPKLSVSVRQSDELSPSNEPPGALVKSLMDPTLRSSDGFIWSRNMCSFPKTNHHRQCLEKEENWKSKEIEECNKIEITHFEKGQSLVSFENLKEGNIPAVREEDIDCHGSKTRKPEEENSQYLSSRKNESSVAKNYEQDPEIVCTIPSKFQETQHSEITPSQDEEMRNNKAASKRVSLHKNEAMEPNNILEECTVLKSLSSVVFDDPIDKLPEGCSSMETNIKISIAERAKPEMSRMVPLIHITFPVDGSPKEPVIAKPSLQTRKGTIHNNHSVNIPVHQENDKHKMNSHRSKLDSKTKTSKKTPQNFVISTEGPIKPTMHKTSIKTQIFPALGLVDPRPWQLPRFQKKMPQIAKKQSTHRTQKPKKQSFPCICKNPGTQKSCVPLSVQPTEPRLNYLDLKYSDMFKEINSTANGPGIYEMFGTPVYCHVRETERDENTYYREICSAPSGRRITNKCRSSHSERKSNIRTRLSQKKTHMKCPKTSFGIKQEHKVLISKEKSSKAVHSNLHDIENGDGISEPDWQIKSSGNEFLSSKDEIHPMNLAQTPEQSMKQNEFPPVSDLSIVEEVSMEESTGDRDISNNQILTTSLRDLQELEELHHQIPFIPSEDSWAVPSEKNSNKYVQQEKQNTASLSKVNASRILTNDLEFDSVSDHSKTLTNFSFQAKQESASSQTYQYWVHYLDHDSLANKSITYQMFGKTLSGTNSISQEIMDSVNNEELTDELLGCLAAELLALDEKDNNSCQKMANETDPENLNLVLRWRGSTPKEMGRETTKVKIQRHSSGLRIYDREEKFLISNEKKIFSENSLKSEEPILWTKGEILGKGAYGTVYCGLTSQGQLIAVKQVALDTSNKLAAEKEYRKLQEEVDLLKALKHVNIVAYLGTCLQENTVSIFMEFVPGGSISSIINRFGPLPEMVFCKYTKQILQGVAYLHENCVVHRDIKGNNVMLMPTGIIKLIDFGCARRLAWAGLNGTHSDMLKSMHGTPYWMAPEVINESGYGRKSDIWSIGCTVFEMATGKPPLASMDRMAAMFYIGAHRGLMPPLPDHFSENAADFVRMCLTRDQHERPSALQLLKHSFLERSH
Question: Which “RC Kinase activity (in vitro kinase assay with labelled ATP, SDS-PAGE, autoradiography)” value (shortened to “RC Kinase activity”) (MKK6, P52564) does the source give for B1 here?
Answer: it has the ability to phosphorylate other RC Kinase polypeptides, MKK4, and MKK6

Question: And the “phosphorylating activity (in vitro kinase assay, autoradiography after SDS-PAGE)” value (from here on “phosphorylating activity”) (MKK6, P52564)?
Answer: showed only minor activity against MKK6

Question: What about the “phosphorylating activity” value (MEK2, P36507) of the same protein?
Answer: no detectable activity against MEK2

Question: What about the “RC Kinase activity” value (MKK4, P45985) of the same protein?
Answer: it has the ability to phosphorylate other RC Kinase polypeptides, MKK4, and MKK6

Question: What about the “phosphorylating activity” value (MKK4, P45985) of the same protein?
Answer: RC Kinase was able to phosphorylate itself and MKK4

Question: What about the “RC Kinase activity” value of the same protein?
Answer: it has the ability to phosphorylate other RC Kinase polypeptides

Question: And the “phosphorylating activity” value?
Answer: RC Kinase was able to phosphorylate itself
